Source: paper PMC8701324, “Structural Insight into the Mechanism of PALB2 Interaction with MRG15” (Genes, 2021)

Biological target: MRG15 MRG domain, amino acids 155-323, Q9UBU8-2
Assay: competition assay (fluorescence anisotropy, displacement of FAM-PALB2 from MRG)
Details: chain shown with the change; 10 nM WT FAM-PALB2 peptide; parent: 9.8 ±2.6

MRG15 MRG domain, amino acids 155-323, Q9UBU8-2, sequence (Q9UBU8 194-362): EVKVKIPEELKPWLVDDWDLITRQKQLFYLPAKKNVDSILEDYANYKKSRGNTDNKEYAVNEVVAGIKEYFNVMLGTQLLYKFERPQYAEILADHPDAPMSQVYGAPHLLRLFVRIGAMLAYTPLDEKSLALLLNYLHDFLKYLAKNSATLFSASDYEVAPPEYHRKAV

Ki	Binder
1.7 nM	MLSLKQLLSFLSITDFQLPDEDFGTLKLEKVKSC [WT PALB2^597-630 peptide P621T]
23.2 nM	MLSLKQLLSFLSITDFQLPHEDFGPLKLEKVKSC [WT PALB2^597-630 peptide D616H]
52.8 nM	MLSLKQLLSFLSITDFQLSDEDFGPLKLEKVKSC [WT PALB2^597-630 peptide P615S]
